Measurements as given in patent US20240207405A1, “IL2 TETHERED TO ITS RECEPTOR IL2RBETA AND PORE-FORMING PROTEINS AS A PLATFORM TO ENHANCE IMMUNE CELL ACTIVITY” (The General Hospital Corporation, priority 2021, published 2024).

What was measured:
NK92^CIRB21-icasp9 cells = assay: Killing of icasp9-expressing NK92 cells by dimerizer drug AP1093; assay type: cell-based, human
Experimental: (§1) L-Holin killing assays—Cells selected cell for L-Holin were tested in a 24 well plate using 32,000 cells per well. 24 hours later doxycycline was added at 1 μg/ml for 4-5 days. Cells selected for icasp9 were tested in a 24 well plate using 32,000 cells per well. 24 hours later dimerizer drug AP1093 was added at 2 or 10 nM for 4-5 days. Surviving cells were quantified using crustal violet assay as described in (Jounaidi et al, Cancer Research 2017).
Next, we examined whether high doses of AP1093 could completely kill NK92^CIRB21−icasp9 cells.

NK92^CIRB21 cells [1] = assay: Growth of NK92^CIRB21 cells in the presence of lactate dehydrogenase inhibitor R-GNE140 (cell count); assay type: cell-based, human; conditions: total cell count, FIG. 11, read-out: IC50 of R-GNE140 for inhibiting growth of NK92^CIRB21 cells
Experimental: (§2) The ability of NK92^CIRB and NK92^CIRB21 cells to grow in the presence of the lactate dehydrogenase inhibitor R-GNE140 was tested. Cells were incubated with increasing concentrations of R-GNE140 and total number of cells were counted.

NK92^CIRB cells [2] = assay: Growth of NK92^CIRB cells in the presence of lactate dehydrogenase inhibitor R-GNE140 (cell count); assay type: cell-based, human; conditions: total cell count, FIG. 11, read-out: IC50 of R-GNE140 for inhibiting growth of NK92^CIRB cells
Experimental: as §2

[3] = cited from earlier work
PC-3 cells = assay type: cell-based, human
Description: Interleukins IL4, IL7, IL9, IL15 and IL21 belong to the same family as IL2, and use the same common IL2Rg. They all have their own private receptors, except for IL2 and IL15, which use IL2Rβ in addition to their own alpha receptors. […] Thus the entire cytoplasmic domain of IL21R was cloned then added Head-to-Tail to the C-terminal of IL2Rβ in the chimera CIRB. […] As shown herein, it was possible to emulate the activation signals from multiple cytokines that activate NK cells via different receptors by using only one ligand and a hybrid receptor.

glioblastoma GL261 cells = assay: L-Holin killing assay in GL261 clones (doxycycline induction, crystal violet); assay type: cell-based, mouse
Experimental: L-Holin GL261 and icasp9 GL261 clones were selected as single cells by extreme dilution in 96 well plates. Clones were grown and evaluated for their response to dox (L-Holin) or AP1093 (icasp9).
as §1
Mouse glioblastoma cell line GL261 was infected by a retrovirus expressing L-Holin. Clones were selected, L-Holin expression was induced with doxycycline, and cell viability was determined. Four clones were tested: 2 clones with high expression levels of L-Holin (Clone 1, Clone 5) and 2 clones with low expression levels of L-Holin (Clone 6, Clone 9).
We compared the ability of L-Holin to trigger cell death to that of icasp9 in GL261 cells. GL261 cells were infected by a retrovirus expressing L-Holin or a retrovirus expressing icasp9. Clones were selected, L-Holin expression was induced with doxycycline, and cell viability was determined. […]

NK92^CIRB21 cells [4] = assay: L-Holin killing of NK92^CIRB21 cells (doxycycline induction, cell count); assay type: cell-based, human; conditions: NK92^CIRB21 cells expressing L-Holin, total cell count, FIG. 5B / FIG. 12
Experimental: NK92^CIRB21 pool selection—NK92^CIRB21 cells expressing L-Holin were selected with puromycin and NK92^CIRB21 cells expressing icasp9 and GFP were sorted by flow cytometry for GFP.
as §1
Mouse glioblastoma cell line GL261 was infected by a retrovirus expressing L-Holin. Clones were selected, L-Holin expression was induced with doxycycline, and cell viability was determined. […]
Expression of L-Holin in NK92^CIRB21+Holin cells was induced with doxycycline. Total number of cells were counted after doxycycline treatment. […] After 13 days of growth in the absence of doxycycline, total number of cells were counted. Untreated cells were counted as a control.
The ability of L-holin to trigger death of NK92^CIRB cells and NK92^CIRB21 cells was tested. […] Total number of cells were counted after 13 days of growth in the absence of doxycycline. Untreated cells were counted as a control. […]

NK92^CIRB cells [5] = assay: L-holin killing of NK92^CIRB cells (doxycycline induction, cell count); assay type: cell-based, human; conditions: total cell count, FIG. 12
Experimental: The ability of L-holin to trigger death of NK92^CIRB cells and NK92^CIRB21 cells was tested. L-bolin expression was induced in NK92^CIRB cells and NK92^CIRB21 cells with doxycycline. Cells were washed to remove doxycycline and then cells were cultured for 13 days. Total number of cells were counted after 13 days of growth in the absence of doxycycline. Untreated cells were counted as a control. […] This sensitivity is consistent with the reliance of NK92^CIRB21 cells on mitochondria, which are lysed by L-holin during cell killing.

CC[C@H](C(=O)N1CCCC[C@H]1C(=O)O[C@H](CCc1ccc(OC)c(OC)c1)c1cccc(OCC(=O)NCCNC(=O)COc2cccc([C@@H](CCc3ccc(OC)c(OC)c3)OC(=O)[C@@H]3CCCCN3C(=O)[C@@H](CC)c3cc(OC)c(OC)c(OC)c3)c2)c1)c1cc(OC)c(OC)c(OC)c1 [AP1093]
viability of NK92^CIRB21-icasp9 cells in the presence of AP1093 (NK92^CIRB21-icasp9 cells; 10 nM AP1093, FIG. 9A): remained viable | viability of NK92 cells expressing GFP and icasp9 in AP1093 (NK92^CIRB21-icasp9 cells; 10 nM AP1093, after 5 days, GFP detection by immunofluorescence, FIG. 9B): viable in 10 nM of AP1093 even after 5 days

O=C1N[C@](c2ccc(N3CCOCC3)cc2)(c2ccsc2)CC(O)=C1Sc1ccccc1Cl [R-GNE140]
IC50 (NK92^CIRB21 cells [1]): 10.6 µM | IC50 (NK92^CIRB cells [2]): 4.7 µM

IL2: immunostimulatory cytokine
half-life of IL2 in vivo [3]: less than 10 min

IL21: soluble interleukin of the IL2 family added to NK92^CIRB cells
effect of soluble interleukin on cytotoxicity of NK92^CIRB against PC-3 cells (PC-3 cells): dramatically enhance cytotoxicity

B1: L-Holin: pore-forming holin protein from bacteriophage, SEQ ID NO: 1, expressed under a tetracycline regulated promoter (protein)
chain: MPEKHDLLAAILAAKEQGIGAILAFAMAYLRGRYNGGAFTKTVIDATMCAIIAWFIRDLLDFAGLSSNLAYITSVFIGYIGTDSIGSLIKRFAAKKAGVEDGRNQ
modifications: Enterobacteriaceae
triggering of cell death compared with icasp9 expressed at low levels (glioblastoma GL261 cells; GL261 cells, icasp9 Clone 2, 2 nM or 10 nM AP1903, FIGS. 7A-7B): more effective at triggering cell death than icasp9 expressed at low levels | cell death as a result of L-Holin expression (glioblastoma GL261 cells; GL261 clones with high (1, 5) and low (6, 9) L-Holin expression, doxycycline induced, FIG. 5A): majority, if not all, of GL261 cells died | detectable cells after L-Holin induction and 13 days of growth in the absence of doxycycline (NK92^CIRB21 cells [4]): remained undetectable | detectable cells after L-Holin induction and 13 days of growth in the absence of doxycycline (NK92^CIRB21 cells [4]; listed as L-holin): undetectable | detectable cells after L-Holin induction and 13 days of growth in the absence of doxycycline (NK92^CIRB cells [5]): some NK92^CIRB cells survived and were detectable
